One molecule from US20130101582A1, “Tiki1 and Tiki2, Wnt Inhibitors” (CHILDREN'S MEDICAL CENTER CORPORATION, priority 2010, published 2013) can be followed below.

Test [1] deals with Wnt3a signaling. In words: TOPFLASH reporter assay, Wnt3a co-transfected with Tiki1 or Tiki2 in HEK293T cells. It is filed as cell-based, human. An excerpt: Wnt3a and Tiki1 or Tiki2 were co-transfected. The TOPFLASH reading (normalized to Renilla) in Wnt3a alone was set as 100. DNA transfection amounts are shown per well in a standard 24-well plate format. Representative data from one of three independent experiments is shown.
The enlarged head phenotype by Tiki1 overexpression is indistinguishable from that by overexpression of Dkk1, a Wnt/LRP6 antagonist (MacDonald, B. T. et al., Dev Cell 17, 9-26 (2009); Glinka, A. et al., Nature 391, 357-362 (1998)). […] Thus Tiki1 likely acts at or upstream of Wnt receptors. […] Xenopus Tiki2, and human Tiki1 and Tiki2 also behaved as Wnt antagonists in Xenopus embryos, HEK293T cells (FIG. 2C) and mouse L cells (FIG. 5A).
In general terms: Reporter assays use an easily measured gene product as a stand-in for the process of interest.

Test [2] deals with beta-catenin stabilization. The test is described as follows: Beta-catenin stabilization in Wnt3a-expressing L cells, Western blotting. The conditions noted are these: Wnt3a-producing L cells stably expressing human Tiki2. Format: cell-based, mouse. The method, then:
Wnt3a CM rescued Tiki2 inhibition of beta-catenin stabilization in Wnt3a-expressing cells. Indicated cell lines were treated with control or Wnt3a CM for 2 hrs and whole cell lysates (WCL) were subjected for Western blotting. Beta-tubulin was a loading control.
As Tiki proteins are related to bacterial proteins of unknown function, it was speculated that Tiki may antagonize Wnt signaling through a novel mechanism, possibly in an enzymatic fashion. Human Tiki2 was stably expressed in L cells or Wnt3a-expressing L cells (human Tiki1 was poorly expressed in L cells). […] In fact Wnt3a CM restored beta-catenin stabilization in Wnt3a-expressing cells that also expressed Tiki2 (FIG. 5A).
On the technique in general: A western blot detects proteins with antibodies after separation by electrophoresis.

In test [3] the target is T1, Wnt3a (Mus musculus, UniProt P27467). The test is described as follows: Acyl-biotinyl exchange (ABE) analysis of Wnt3a produced from Tiki2-expressing cells. It is filed as cell-based. Also on record: expressed in transfected cells; host or cells: mouse L cells (Wnt3a-expressing); HEK293T. The following applies: compared to Wnt3a from control cells. An excerpt: FIG. 6C is a gel showing the results of Acyl-biotinyl exchange (ABE) analysis of control Wnt3a or Wnt3a produced from Tiki2-expressing cells. Biotinylation of Wnt3a secreted from Tiki2-expressing cells was much reduced compared to that of Wnt3a from control cells.
T1 sequence (P27467 19-352): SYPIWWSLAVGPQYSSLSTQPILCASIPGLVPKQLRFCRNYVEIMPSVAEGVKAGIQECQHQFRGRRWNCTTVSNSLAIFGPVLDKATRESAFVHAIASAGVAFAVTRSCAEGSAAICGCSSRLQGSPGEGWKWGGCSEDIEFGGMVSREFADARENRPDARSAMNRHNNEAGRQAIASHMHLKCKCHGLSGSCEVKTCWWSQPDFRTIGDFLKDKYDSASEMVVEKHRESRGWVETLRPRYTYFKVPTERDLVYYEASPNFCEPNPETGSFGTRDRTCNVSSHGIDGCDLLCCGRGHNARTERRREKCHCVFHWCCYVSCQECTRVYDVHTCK
Biotinylation of Wnt3a secreted in the presence of Tiki2 was much reduced compared to that of Wnt3a from control cells (FIG. 6C). This reduction of available thioester linkage indicates depalmitoylation of Wnt3a at a cysteine residue, e.g., C77, in the presence of Tiki2

The target in test [4] is T1, Wnt3a. The test is described as follows: Metabolic labeling (az-15 / 35S) to quantify Wnt3a acylation in HEK293T cells. Format: cell-based. Also on record: expressed in transfected cells; host or cells: HEK293T. The conditions noted are these: co-expressed with Wnt3a in HEK293T cells; versus GFP control. How it is done:
FIG. 6E is a gel showing that Tiki2, but not the control GFP, reduces Wnt3a acylation in HEK293T cells (Top panel). The total amount of Wnt3a is constant (bottom panel).
Metabolic labeling was performed to quantify Wnt3a acylation. Wnt3a co-expressed with GFP (control) or hTiki2 in HEK293T cells was metabolically labeled with an azido-palmitic acid analog (az-15) and [^35S]-Methionine/Cysteine. Wnt3a secreted in the culture medium was immunoprecipitated and subjected to click chemistry reaction using the Rhodamine-labeled ALK reagent (ALK-Rho), which reacts with az-15 (Charron G et al., JACS 131, 4967, 2009). The fluorescent signal indicates the acylation amount of Wnt3a whereas ^35S signal indicates the total amount of Wnt3a protein (FIG. 6E). […] Thus the maximal reduction of acylation by Tiki2 is expected to be 50% if the deacylation is complete and there are only two acylation sites. The 31% reduction we observed is consistent with the possibility of three acylation sites, although it is also possible that there are only two acylation sites in Wnt3a, and Tiki2 deacylation of one of these two sites was incomplete in our experiment.

B1: Tiki2: Human Tiki2 (XP 371250/LOC388630) (SEQ ID NO:2), expressed in L or HEK293T cells (protein, listed as Homo sapiens)
chain: MHAALAGPLLAALLATARARPQPPDGGQCRPPGSQRDLNSFLWTIRRDPPAYLFGTIHVPYTRVWDFIPDNSKAAFQASTRVYFELDLTDPYTISALASCQLLPHGENLQDVLPHELYWRLKRHLDYVKLMMPSWMTPAQRGKGLYADYLFNAIAGNWERKRPVWVMLMVNSLTERDVRFRGVPVLDLYLAQQAEKMKKTTGAVEQVEEQCHPLNNGLNFSQVLFALNQTLLQQESVRAGSLQASYTTEDLIKHYNCGDLSAVIFNHDTSQLPNFINTTLPPHEQVTAQEIDSYFRQELIYKRNERMGKRVMALLRENEDKICFFAFGAGHFLGNNTVIDILRQAGLEVDHTPAGQAIHSPAPQSPAPSPEGTSTSPAPVTPAAAVPEAPSVTPTAPPEDEDPALSPHLLLPDSLSQLEEFGRQRKWHKRQSTHQRPRQFNDLWVRIEDSTTASPPPLPLQPTHSSGTAKPPFQLSDQLQQQDPPGPASSSAPTLGLLPAIATTIAVCFLLHSLGPS
B1: in test [1], the “Wnt3a signaling, TOPFLASH reporter” value is “inhibit Wnt3a signaling”. The Beta-catenin stabilization entry in test [2] was “inhibited beta-catenin stabilization”. For the same molecule, the “Biotinylation of secreted Wnt3a in ABE assay” value in test [3] is “much reduced”. For the same molecule, in test [4], the “Reduction of Wnt3a acylation” value is “about 31%”.
